Columns and labels:
[1] = target: PD-L1 on CHO-PD-L1 cells (human) (UniProt Q9NZQ7); experiment: flow cytometry cell binding; CHO-PD-L1 cells
CD47 on Jurkat cells = CD47 on Jurkat cells (UniProt Q08722); experiment: flow cytometry cell binding; Jurkat cells

PD-L1 on CHO-PD-L1 cells (human), sequence (Q9NZQ7 19-290): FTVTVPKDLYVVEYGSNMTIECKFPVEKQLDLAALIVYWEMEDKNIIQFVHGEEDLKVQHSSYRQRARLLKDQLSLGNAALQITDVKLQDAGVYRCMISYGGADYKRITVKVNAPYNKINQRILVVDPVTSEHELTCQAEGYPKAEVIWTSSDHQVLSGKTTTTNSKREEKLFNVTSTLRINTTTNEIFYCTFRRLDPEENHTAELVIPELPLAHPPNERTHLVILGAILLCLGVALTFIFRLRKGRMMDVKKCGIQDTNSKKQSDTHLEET

Substance	EC50 [1] [nM]	EC50 (CD47 on Jurkat cells) [nM]
Atezolizumab	0.027	
IMM2505	0.0471	0.913

Source: US20230083670A1
